# Numbering of substitutions follows the chain as printed. Where two headings read alike, the source gives them in different places.
# B1: MLC089: fusion polypeptide SEQ ID NO: 379 conjugated with Moiety B at 39C of Linker (conjugate)
# chain: HGEGTFTSDVSSYLEEQAAKEFIAWLVRGGGGAQPGAQPGAQPGAQPGAQPGAQPGAQPGAQPGQEPGQCPGQEPGAQPGQEPGAQPGQEPGAQPGQEPGAQPGQEPGAQPARQGDHCPLGPGRCCRLHTVRASLEDLGWADWVLSPREVQVTMCIGACPSQFRAANLHAQIKTSLHRLKPDTVPAPCCVPASYNPMVLIQKTDTGVSLQTYDDLLAKDCHCI
# modifications: Moiety B conjugated at linker Cys39
# B2: MLC021: unconjugated GLP-1/GDF15 fusion protein, linker of at least 80 residues (protein)
# chain: HGEGTFTSDVSSYLEEQAAKEFIAWLVRGGGGQEPGAQPGQEPGAQPGQEPGAQPGQEPGAQPGQEPGAQPGQEPGAQPGAQPGAQPGAQPGAQPGAQPGAQPGAQPGAQPARQGDHCPLGPGRCCRLHTVRASLEDLGWADWVLSPREVQVTMCIGACPSQFRAANLHAQIKTSLHRLKPDTVPAPCCVPASYNPMVLIQKTDTGVSLQTYDDLLAKDCHCI
# B3: MLC047: fusion polypeptide SEQ ID NO: 330 conjugated with Moiety A at 40K of linker (conjugate)
# chain: B2 chain with K20R, P71K, K180R, K202R, K218R
# What was measured:
# [1] = Body weight and food intake in C57BL/6 mice, fusion protein conjugates, 30 nmol/kg daily 10 days; type: in vivo
# Summary of the method: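 Male C57BL/6 mice received fusion protein conjugates by daily subcutaneous injection, with dosing running from Day 1 to Day 10. Body weight was recorded daily per animal and food intake daily per group. Body weight reduction was expressed relative to vehicle percent loss from Day 1. Cumulative food intake reduction was expressed as percent decrease versus vehicle.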
# [2] = PK study in non-human primates, single sc dose 5 nmol/kg, plasma ELISA; settings: monkey, single sc dose 5 nmol/kg
# Protocol: (§2) Plasma samples were collected pre-dose (−5 min), 2 hr, 4 hr, 6 hr, 8 hr, 24 hr, 48 hr, 72 hr, 96 hr, 120 hr, 144 hr, 216 hr, 288 hr, 360 hr, 432 hr and 504 hr after the injection. The concentrations of the fusion protein conjugates in the plasma were measured by an ELISA assay which has immunoreactivity towards both GDF15 and intact N-terminal of GLP-1. Based on the graph showing plasma concentration of each protein versus time after subcutaneous injection, the pharmacokinetic parameters (including Tmax, Cmax, T1/2, AUC) were calculated by WinNonlin software.
# [3] = Efficacy in db/db mice: body weight, food intake, glucose, biomarkers, daily sc 14 days; type: in vivo
# Protocol: (§1) FIGS. 4A-4D show In vivo efficacy in db/db mice. To evaluate the body weight, food intake and glucose effects of the fusion proteins, 8 week old male db/db mice were dosed everyday subcutaneously with 30 nmol/kg protein for 14 days. […] Compared to Vehicle control: ***, p<0.001. Data are expressed as mean values and standard error (SEM) for FIGS. 4A, 4B and 4D. n=5 for each treatment group. For FIG. 4C, a pooled food intake was measured for each treatment group.
# FIGS. 5A-5F show In vivo efficacy in db/db mice. To evaluate the body weight, food intake and glucose effects of the fusion proteins, 8 week old male db/db mice were dosed everyday subcutaneously with different concentrations of proteins for 14 days. FIGS. 5A and 5B show body weight loss upon protein treatments from Day1 to Day15. […] Compared to Vehicle control: ***, p<0.001; **, p<0.01; *, p<0.05; ns, non-statistically significant; FIGS. 5D and 5E show cumulative food intake with protein treatments from Day1 to Day15. […] Compared to Vehicle control: ***, p<0.001**, p<0.01; *, p<0.05; ns, non-statistically significant. Data are expressed as mean values and standard error (SEM) for FIGS. 5A, 5B, 5C and 5F. n=5 for each treatment group. For FIGS. 5D and 5E, a pooled food intake was measured for each treatment group.
# as §1, with “8A-8I” for “4A-4D”, “different concentrations of proteins” for “30 nmol/kg protein”, “FIGS. 8D-8F show body weight loss upon dose titrations of fusion protein conjugates. […]” for “Compared to Vehicle control: ***, p<0.001.”, “8A” for “4A, 4B”, “8C-I.” for “4D.”, “8B,” for “4C,”
# Selected fusion protein conjugates are assessed in disease animal models (DIO mice, db/db mice, etc.) to determine body weight, food intake, glucose efficacy with dose responses. Some biomarkers are also measured, including fasting insulin, plasma triglyceride, cholesterol, liver triglyceride, and inflammatory biomarkers (ALT, AST and CRP).
# 8 week old male db/db mice were injected everyday subcutaneously with designated proteins for 14 days. Age matched lean mice were used as control. Food intake and body weight were measured daily and five animals were used for each treatment group. Fasting glucose were tested on designated days as shown in each figure. Body weight was monitored for each individual animal, but food intake for each group animals was measured together. Day 1 and Day 14 are first day and last day of molecule dosage. % BW loss=100*(BW on Day n-BW on Day 1)/(BW on Day 1). Cumulative food intake on Day n represents sum of food intake from Day 1 to Day n. Terminal blood was collected and EDTA-2K plasma was prepared and frozen at −80° C. for biomarker measurement. Liver was also collected and frozen in liquid nitrogen and store at −80° C. Data are indicated as mean values and standard error (SEM) or pooled values. Statistical analysis was performed by One-way ANOVA.
# [4] = Efficacy in DIO mice, daily sc 28 days; type: in vivo, DIO male C57BL/6 mice
# Protocol: FIGS. 6A-6E show In vivo efficacy in DIO mice. To evaluate the body weight, food intake and glucose effects of the fusion proteins, 17 week old DIO mice (C57BL/6 mice on high fat diet for 13 weeks) were dosed everyday subcutaneously with different concentrations of proteins for 28 days. […] FIGS. 6D and 6E show body weight change with dose titrations of MLC089 and MLC093 at 3, 10 and 30 nmol/kg. Data are expressed as mean values and standard error (SEM) for FIGS. 6A, 6C, 6D and 6E. n=5 for each treatment group. For FIG. 6B, a pooled food intake was measured for each treatment group.
# 17 week old DIO male C57BL/6 mice (˜45 g) were injected everyday subcutaneously with designated proteins (i.e., MLC089, MLC093) for 28 days. Food intake and body weight were measured daily and five animals were used for each treatment group. Fasting glucose was also monitored on designated days. Body weight and glucose were monitored for each individual animal, but food intake for each group animals was measured together. Day 1 and Day 28 are first day and last day of molecule dosage. % BW loss=100*(BW on Day n-BW on Day 1)/(BW on Day 1). Cumulative food intake on Day n represents sum of food intake from Day 1 to Day n. Terminal blood was collected and EDTA-2K plasma was prepared and frozen at −80 C for biomarker measurement. Liver was also collected and frozen in liquid nitrogen and store at −80 C. Data are indicated as mean values and standard error (SEM) or pooled values.
# [5] = Pharmacokinetic measurement in mouse, single sc dose 30 nmol/kg, plasma ELISA
# [6] = Body weight and food intake in C57BL/6 mice, unconjugated fusion proteins, 30 nmol/kg daily 10 days; type: in vivo
# Protocol: 10 week old male C57BL/6 mice were injected everyday subcutaneously with 15 nmol/kg of the fusion protein conjugates (i.e., MLC002, MLC 004, MLC 005, MLC 006, MLC 007, MLC 008, and MLC 009) for 14 days. Food intake and body weight were measured daily and five animals were used for each treatment group. Body weight (BW) was monitored for each individual animal, but food intake for each group animals was measured together. Day 1 and Day 14 are first day and last day of molecule dosage. % BW loss=100*(BW on Day n-BW on Day 1)/(BW on Day 1). Cumulative food intake on Day n represents sum of food intake from Day 1 to Day n. Data are indicated as mean values and standard error (SEM) or pooled values. Statistical analysis was performed by One-way ANOVA. Body weight reduction on Day 11 is calculated by −1*(% BW loss−% BW loss of vehicle group); Cumulative food intake reduction is calculated by −100*(cumulative food intake-cumulative food intake of vehicle)/cumulative food intake of vehicle.
# As described in the above method, a daily dose of 30 nmol/kg of the unconjugated fusion proteins (i.e., MLC100, MLC023, MLC022, MLC020, MLC003, MLC124, MLC021, MLC019, MLC102) were administered to C57BL/6 for 10 days. Data were calculated as above method. Day 1 and Day 10 are first day and last day of administration.
# [7] = Additive or synergistic effect: body weight and food intake in C57BL/6 mice, 30 nmol/kg daily sc 10 days; type: in vivo; settings: versus negative controls MLC096 and MLC097
# Protocol: FIGS. 7A-7B show In vivo efficacy in C57 lean mice. To evaluate the body weight and food intake effects of the fusion proteins, 10 week old male C57BL/6J mice were dosed everyday subcutaneously with 30 nmol/kg protein for 10 days. Food intake and body weight were measured daily. […] Data are expressed as mean values and standard error (SEM) for FIG. 7A. n=5 for each treatment group. For FIG. 7B, a pooled food intake was measured for each treatment group.
# 10 week old male C57BL/6 mice were injected everyday subcutaneously with 30 nmol/kg of the unconjugated fusion proteins (i.e., MLC096, MLC097 and MLCO21) for 10 days. Food intake and body weight were measured daily and five animals were used for each treatment group. Body weight (BW) was monitored for each individual animal, but food intake for each group animals was measured together. Day 1 and Day 10 are first day and last day of molecule dosage. % BW loss=100*(BW on Day n-BW on Day 1)/(BW on Day 1). Cumulative food intake on Day n represents sum of food intake from Day 1 to Day n. Data are indicated as mean values and standard error (SEM) or pooled values. Statistical analysis was performed by One-way ANOVA.
# As discussed above, MLC096 and MLC097 were used as negative controls, as they contained known inactivating mutation in GDF15 or GLP-1.
# [8] = cynomolgus monkey, in vivo, sc, 5 nmol/kg
# Protocol: as §2
# [9] = mouse, in vivo, sc, 30 nmol/kg
# [10] = 30 nmol/kg, FIG. 8A-C, versus Semaglutide, Tirzepatide and MLC014
# [11] = C57 mice, 30 nmol/kg daily, Day11, unconjugated fusion proteins
# [12] = 30 nmol/kg, FIG. 5A-E, versus Semaglutide, Tirzepatide and MLC014
molecule,measurement,setting,value
B1,Body weight reduction at 30 nmol/kg (% reduction compared to vehicle)(Day11),[1],24.6%
same,Cumulative food intake reduction at 30 nmol/kg (% reduction compared to vehicle)(Day11),[1],29.9%
same,AUC0-96 h,[2],3.413 µM·h
same,Terminal t1/2,[2],54 h
same,Tmax,[2],8 h
same,Cmax,[2]; read-out: Cmax (nmol/L),70.5 nmol/L
same,body weight loss,[3]; [10],"more body weight loss, food intake suppression and glycemic control"
same,food intake suppression,[3]; [10],"more body weight loss, food intake suppression and glycemic control"
same,glycemic control,[3]; [10],"more body weight loss, food intake suppression and glycemic control"
same,efficacy,[3]; FIG. 8 study,better efficacy than Semaglutide and GDF15 derivative (MLC014)
same,body weight reduction efficacy,"[4]; DIO mice, 30 nmol/kg daily 28 days, FIG. 6A",much better body weight reduction efficacy than Semaglutide and GDF15 derivative (MLC014)
same,dose dependence of body weight reduction,"[4]; DIO mice, 3, 10 and 30 nmol/kg, FIGS. 6D and 6E",dose dependent efficacy on body weight reduction
same,fasting glucose,"[4]; DIO mice, FIG. 6C",reached similar level to Semaglutide
same,efficacy,"[4]; DIO study, FIG. 6",better efficacy than Semaglutide and GDF15 derivative (MLC014)
same,Cmax,"[5]; read-out: Cmax (nmol/L), single sc dose 30 nmol/kg",116 nmol/L
same,AUC0-24 h,[5]; single sc dose 30 nmol/kg,1.9822 µM·h
same,Terminal t1/2,[5]; single sc dose 30 nmol/kg,14.7 h
same,Tmax,[5]; single sc dose 30 nmol/kg,10.7 h
B2,Body weight reduction at 30 nmol/kg (% reduction compared to vehicle)(Day11),[6]; [11],22.1%
same,Cumulative food intake reduction at 30 nmol/kg (% reduction compared to vehicle)(Day11),[6]; [11],48.7%
same,in vivo efficacy (food intake and body weight reduction),"[6]; unconjugated fusion proteins, 30 nmol/kg daily 10 days, by linker length",the most significant results among all the tested fusion proteins
same,body weight reduction efficacy,[7],much better body weight reduction efficacy
same,food intake,[7],decreased food intake
B3,Body weight reduction at 30 nmol/kg (% reduction compared to vehicle)(Day11),[1],24.7%
same,Cumulative food intake reduction at 30 nmol/kg (% reduction compared to vehicle)(Day11),[1],51.2%
same,Tmax,[2],16 h
same,body weight loss,[3]; [12],sustainable and much better effect
same,food intake suppression,[3]; [12],sustainable and much better effect
same,efficacy,[3]; FIG. 5 study,better efficacy than Semaglutide and GDF15 derivative (MLC014)
same,AUC0-96 h,[8],1.541 µM·h
same,AUC0-24 h,[9],1.2468 µM·h
same,Cmax,[9],71.9 nM
same,Terminal t1/2,[9],9.3 h
same,Tmax,[5]; single sc dose 30 nmol/kg,10.7 h

# Reference: US11453711B2, “Fusion proteins of GLP-1 and GDF15 and conjugates thereof” (BEIJING QL BIOPHARMACEUTICAL CO., LTD., priority 2019, dated 2022)
